Results from paper PMC8191293.

Key:
[1] = flow cytometry, total cellular PMP22, HEK293; details: glycan lost; control: same variant with N41 intact
[2] = flow cytometry, cell surface PMP22, rat Schwann cells; details: glycan lost; control: same variant with N41 intact
[3] = flow cytometry, total PMP22, primary rat Schwann cells; details: glycan lost; control: same variant with N41 intact
[4] = single-cell flow cytometry, surface/total PMP22, HEK293; details: glycan lost
[5] = flow cytometry, trafficking efficiency, rat Schwann cells; details: glycan lost; control: same variant with N41 intact
[6] = flow cytometry, cell surface PMP22, HEK293; details: glycan lost; control: same CMTD variant with N41 intact
[7] = flow cytometry, normalized trafficking efficiency of WT PMP22; details: glycan lost; control: WT PMP22 in untreated or DMSO-treated HEK293
[8] = flow cytometry, trafficking efficiency of CMTD PMP22 variants; details: glycan lost; control: same CMTD variant in untreated HEK293
[9] = flow cytometry, total cellular PMP22; details: glycan changed form; control: WT PMP22 in parental HEK293
[10] = flow cytometry, trafficking efficiency; details: glycan changed form; control: WT PMP22 in parental HEK293

| Protein | expression_or_secretion [1] | localisation_or_trafficking [6] | localisation_or_trafficking, fold_change [7] | localisation_or_trafficking [8] | other results |
| --- | --- | --- | --- | --- | --- |
| peripheral myelin protein 22 (PMP22): L16P/N41Q (protein) parent chain: MLLLLLSIIVLHVAVPVLLFVSTIVSQWIVGNGHATDLWQNCSTSSSGNVHHCFSSSPNEWLQSVQATMILSIIFSILSLFLFFCQLFTLTKGGRFYITGIFQILAGLCVMSAAAIYTVRHPEWHLNSDYSYGFAYILAWVAFPLALLSGVIYVILRKRE | no change |  |  |  | localisation_or_trafficking [2]: increases; expression_or_secretion [3]: no change; localisation_or_trafficking, other: trafficking efficiency ([4]; control: L16P PMP22): increases, 34 ± 10 vs 3 ± 1; localisation_or_trafficking [5]: increases |
| peripheral myelin protein 22 (PMP22): A67T/N41Q (protein) parent chain: MLLLLLSIIVLHVAVLVLLFVSTIVSQWIVGNGHATDLWQNCSTSSSGNVHHCFSSSPNEWLQSVQTTMILSIIFSILSLFLFFCQLFTLTKGGRFYITGIFQILAGLCVMSAAAIYTVRHPEWHLNSDYSYGFAYILAWVAFPLALLSGVIYVILRKRE | increases | increases |  |  |  |
| peripheral myelin protein 22 (PMP22): C19 (protein) parent chain: MLLLLLSIIVLHVAVLVLLFVSTIVSQWIVGNGHATDLWQNCSTSSSGNVHHCFSSSPNEWLQSVQATMILSIIFSILSLFLFFCQLFTLTKGGRFYITGIFQILAGLCVMSAAAIYTVRHPEWHLNSDYSYGFAYILAWVAFPLALLSGVIYVILRKRE |  |  | increases |  |  |
| peripheral myelin protein 22 (PMP22): STT3B KO (protein) parent chain: MLLLLLSIIVLHVAVLVLLFVSTIVSQWIVGNGHATDLWQNCSTSSSGNVHHCFSSSPNEWLQSVQATMILSIIFSILSLFLFFCQLFTLTKGGRFYITGIFQILAGLCVMSAAAIYTVRHPEWHLNSDYSYGFAYILAWVAFPLALLSGVIYVILRKRE |  |  | increases | no change |  |
| peripheral myelin protein 22 (PMP22): STT3A KO (protein) parent chain: MLLLLLSIIVLHVAVLVLLFVSTIVSQWIVGNGHATDLWQNCSTSSSGNVHHCFSSSPNEWLQSVQATMILSIIFSILSLFLFFCQLFTLTKGGRFYITGIFQILAGLCVMSAAAIYTVRHPEWHLNSDYSYGFAYILAWVAFPLALLSGVIYVILRKRE |  |  | no change | no change |  |
| peripheral myelin protein 22 (PMP22): N41Q (protein) parent chain: MLLLLLSIIVLHVAVLVLLFVSTIVSQWIVGNGHATDLWQNCSTSSSGNVHHCFSSSPNEWLQSVQATMILSIIFSILSLFLFFCQLFTLTKGGRFYITGIFQILAGLCVMSAAAIYTVRHPEWHLNSDYSYGFAYILAWVAFPLALLSGVIYVILRKRE |  |  |  |  | localisation_or_trafficking, other: trafficking efficiency ([4]; control: wild type): increases, 53 ± 7 vs 19 ± 5 |
| peripheral myelin protein 22 (PMP22): UGGT1 KO (protein) parent chain: MLLLLLSIIVLHVAVLVLLFVSTIVSQWIVGNGHATDLWQNCSTSSSGNVHHCFSSSPNEWLQSVQATMILSIIFSILSLFLFFCQLFTLTKGGRFYITGIFQILAGLCVMSAAAIYTVRHPEWHLNSDYSYGFAYILAWVAFPLALLSGVIYVILRKRE |  |  |  |  | expression_or_secretion [9]: decreases; localisation_or_trafficking [10]: decreases |
| peripheral myelin protein 22 (PMP22): NGI-1 (protein) parent chain: MLLLLLSIIVLHVAVLVLLFVSTIVSQWIVGNGHATDLWQNCSTSSSGNVHHCFSSSPNEWLQSVQATMILSIIFSILSLFLFFCQLFTLTKGGRFYITGIFQILAGLCVMSAAAIYTVRHPEWHLNSDYSYGFAYILAWVAFPLALLSGVIYVILRKRE |  |  | increases | increases |  |
| peripheral myelin protein 22 (PMP22): T118M/N41Q (protein) parent chain: MLLLLLSIIVLHVAVLVLLFVSTIVSQWIVGNGHATDLWQNCSTSSSGNVHHCFSSSPNEWLQSVQATMILSIIFSILSLFLFFCQLFTLTKGGRFYITGIFQILAGLCVMSAAAIYMVRHPEWHLNSDYSYGFAYILAWVAFPLALLSGVIYVILRKRE | increases | increases |  |  |  |
| peripheral myelin protein 22 (PMP22): G93R/N41Q (protein) parent chain: MLLLLLSIIVLHVAVLVLLFVSTIVSQWIVGNGHATDLWQNCSTSSSGNVHHCFSSSPNEWLQSVQATMILSIIFSILSLFLFFCQLFTLTKRGRFYITGIFQILAGLCVMSAAAIYTVRHPEWHLNSDYSYGFAYILAWVAFPLALLSGVIYVILRKRE | increases | increases |  |  |  |
